Results from IntAct's records for PubMed 11226162.

B1: Transcription factor HY5 (Arabidopsis thaliana (Mouse-ear cress)), O24646 (parent)
chain: MQEQATSSLAASSLPSSSERSSSSAPHLEIKEGIESDEEIRRVPEFGGEAVGKETSGRESGSATGQERTQATVGESQRKRGRTPAEKENKRLKRLLRNRVSAQQARERKKAYLSELENRVKDLENKNSELEERLSTLQNENQMLRHILKNTTGNKRGGGGGSNADASL
partner: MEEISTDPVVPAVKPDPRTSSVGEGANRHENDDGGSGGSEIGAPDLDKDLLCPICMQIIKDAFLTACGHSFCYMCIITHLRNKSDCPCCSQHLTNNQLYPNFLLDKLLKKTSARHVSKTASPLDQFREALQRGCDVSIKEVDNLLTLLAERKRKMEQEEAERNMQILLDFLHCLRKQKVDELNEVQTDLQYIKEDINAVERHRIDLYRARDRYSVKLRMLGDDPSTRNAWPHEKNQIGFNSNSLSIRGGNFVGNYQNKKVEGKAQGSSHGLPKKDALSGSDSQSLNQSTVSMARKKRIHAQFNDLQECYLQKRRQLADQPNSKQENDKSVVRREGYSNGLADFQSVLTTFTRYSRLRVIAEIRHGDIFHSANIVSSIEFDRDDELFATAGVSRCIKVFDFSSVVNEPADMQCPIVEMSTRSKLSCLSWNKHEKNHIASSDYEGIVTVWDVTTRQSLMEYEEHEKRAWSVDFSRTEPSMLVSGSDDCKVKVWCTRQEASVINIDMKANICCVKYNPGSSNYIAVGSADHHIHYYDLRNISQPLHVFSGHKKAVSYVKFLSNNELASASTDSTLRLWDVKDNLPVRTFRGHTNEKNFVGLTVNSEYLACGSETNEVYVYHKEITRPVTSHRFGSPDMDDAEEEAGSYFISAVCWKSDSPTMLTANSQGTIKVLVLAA
B2: E3 ubiquitin-protein ligase COP1 (Arabidopsis thaliana (Mouse-ear cress)), P43254 (parent)
chain: B1 partner
partner: B1 chain
B3: E3 ubiquitin-protein ligase COP1 (Arabidopsis thaliana (Mouse-ear cress)), P43254 (parent)
chain: B1 partner
partner: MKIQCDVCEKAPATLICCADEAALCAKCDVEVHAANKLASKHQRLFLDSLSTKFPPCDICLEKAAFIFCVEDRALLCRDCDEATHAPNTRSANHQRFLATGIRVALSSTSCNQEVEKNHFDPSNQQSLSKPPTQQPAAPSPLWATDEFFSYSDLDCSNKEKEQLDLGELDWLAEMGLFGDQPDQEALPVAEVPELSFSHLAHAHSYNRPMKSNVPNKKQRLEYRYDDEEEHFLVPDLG
B4: E3 ubiquitin-protein ligase COP1 (Arabidopsis thaliana (Mouse-ear cress)), P43254 (parent)
chain: B1 partner
partner: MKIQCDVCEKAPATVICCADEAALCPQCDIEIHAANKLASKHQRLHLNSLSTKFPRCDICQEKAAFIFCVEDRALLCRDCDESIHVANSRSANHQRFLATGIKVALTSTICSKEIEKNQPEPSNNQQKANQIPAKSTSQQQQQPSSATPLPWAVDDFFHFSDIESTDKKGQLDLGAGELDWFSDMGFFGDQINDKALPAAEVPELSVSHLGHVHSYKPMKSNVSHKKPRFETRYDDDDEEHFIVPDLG
B5: B-box zinc finger protein 25 (Arabidopsis thaliana (Mouse-ear cress)), Q9SID1 (parent)
chain: B3 partner
partner: B1 partner

Variants of: B1
Settings: with cop1_arath COP1, P43254

effect of a mutation on the interaction	Variant
decreasing interaction	V43A;P44A

Variants of: B2
Settings: with hy5_arath HY5, O24646

Variant	effect of a mutation on the interaction
K422E	increasing interaction
W467A	decreasing interaction
G524E	decreasing interaction

The next lines start with the values.

effect of a mutation on the interaction	Variant
increasing interaction	E592R
decreasing interaction	K550E

Variants of: B3
Settings: with bbx25_arath BBX25, Q9SID1

Variant	effect of a mutation on the interaction
K422E	decreasing interaction
G524E	decreasing interaction
R465E	decreasing interaction
W467A	decreasing interaction

Continued, values first:

effect of a mutation on the interaction	Variant
increasing interaction	E592R
decreasing interaction	K550E

Variants of: B4
Settings: with BBX24, Q96288-1

Variant	effect of a mutation on the interaction
W467A	decreasing interaction
K422E	decreasing interaction
R465E	decreasing interaction
G524E	decreasing interaction

Now from value to variant:

effect of a mutation on the interaction	Variant
decreasing interaction	K550E
increasing interaction	E592R

Variants of: B5
Settings: with cop1_arath COP1, P43254

effect of a mutation on the interaction	Variant
decreasing interaction	V234A;P235A
